# From patent US20060193851A1
# Test system: 10C12 F(ab')2-leucine zipper
substance,measurement,value
factor X,rate of FX activation by relipidated TF(1-243):FVIIa after incubating 10C12 with the substrate FX,10C12 at up to 200 µg/ml did not inhibit FXa generation in either experimental setting
